Among the data in US20220380442A1 (published 2022) are EC50 values, retold here.

First the molecules themselves.
B1: SNV-27 (antibody, V domains shown)
VH: QVQLVQSGAEVKKPGASVRVSCKAYGYSFNDYFMHWVRQAPGQGLEWMGRVKPSTGGTRYAQKFQGRVTMTLDTSTSTAYVELSSLSSDDTAVYFCARKLGPLGDCSSSSCYSALDVWGQGTMVTVSS
VL: DIQMTQSPSTLSASVGDRVTITCRASESISNWLAWYQQKPGKAPKLLISKASSLESGVPSRFSGSGSGTEFTLTIGSLQPDDFATYYCQQYNTYSWTFGQGTKVDIK
B2: SNV-68 (antibody, V domains shown)
VH: QVQLQESGPGLVKPSGTLSLTCLVSGGSIGSSHWWSWVRQSPGKGLEWFGEIHHTESTNYNPSLKSRVTITMDKSKNQFYLKLTSVTAADTAVYYCARAGATFAEPFSLWGQGTMVTVSP
VL: DIQMTQSPSTLSASVGDRVTITCRAGQSVTNWLAWYQQKPGKAPKLLIYKASILASGVPSRFSGSGSGTEFTLTISSVQPDDSAVYYCQQYKSHRTFGQGTKVEIK
B3: SNV-65 (antibody, V domains shown)
VH: QVQLQESGPGLVKPSQTLSLTCTVSGGSISSGGYFWSWIRQHPGKGLEWIGYIYYSGSTYYNPSLKSRVTISIDTSKIQFSLKLTSVTAADTAVYYCARDVGGFDIWGQGTMVTVSS
VL: DIQMTQSPSSLSASIGDRVTITCQASQDINKYLNWYQQKPGKAPKVLIYDASNLETGVPSRFSGSGSGTDFTFTISSLQPEDVATYYCQQYENLPRTFGQGTKVEIK
B4: SNV-50 (antibody, V domains shown)
VH: EMQLLESGGGLIQPGESLRLSCAGSGFTFRNYAMSWVRQAPGKGLQWVSAISASGGITHYADSVKGRFTISRDNSKNTLFLQMNSLRAEDTAVYYCAKGEIMRDTGYHDDAFDVWGQGKMVTVSS
VL: DIQLTQSPSFLSASVGDRVTITCRASQGISSYLVWYQQKPGEAPKLLIYTASTLQSGVPSRFSGSGSGTEFTLTISSLQPEDFATYHCQQVESYPYSFGQGTKLEIK
B5: SNV-36 (antibody, V domains shown)
VH: QVQLVESGGGVVQPGRSLRLSCAASGFRFSSYAMHWVRQAPGKGLEWVATIWFDGTNEYYGDSAKGRFTISRDNSMSTLYLQMNSLRVEDTAVYYCARPANGYSDYYYGMDVWGQGTTVTVSS
VL: QSALTQPASVSGSPGQSITISCTGTSSDVGTYNLVSWYQQHPGKAPKLMIFEVNKRPSGVSYRFSGSKSGNTASLTISGLQAEDEADYYCCSYADNRTPFLFGTGTKVTVLG
B6: SNV-24 (antibody, V domains shown)
VH: EVQLLESGGGLIQSGGSLRLSCVVSGIDFSNYAMTWVRHAPGKGLEWISTISGSGDTTNYADSAKGRFTISRDNSRNTLFVRINSLRAEDTAIYYCAKTMGPVSGQYAFDIWGQGTKVTVSS
VL: SYELTQPPSVSVSPGQTATITCSGDNLGNKFASWYQQKPGLSPVLVIYQDKKRPSGIPERFSGSNSGNTATLTISGTQAMDEADYFCQAWHSGSVFGGGTKLTVL
B7: SNV-45 (antibody, V domains shown)
VH: ELQLVESGGGLIRPGGSLRLSCTAAGFTFSNYNMNWVRQAPGKGLDWVSYISSSGGTTIYADSVKGRFTISRDNAKDSLYLQMNSLRDDDTAIYYCVRGRGQLATHFDYWGQGTLVTVSS
VL: ESVLTQFPDFQSVTPKEKVTITCRASQSIHINLHWYQQKPHQSPKLLIKYASQSIAGVPSRFSGSGSGTEFTLTINGLEAEDAATYYCHQSNSLPWTFGQGTKVEIK
B8: SNV-66 (antibody, V domains shown)
VH: QVRLVESGGGVVQPGRSLRLSCAASGFTFRSYGMHWVRQAPGKGLEWVALISLDGSEKHYADSVKGRLTISRDNSKNMLYLQMNNLRVEDTAVYYCAKDRPYSWRDVLDYWGQGTLVTVSS
VL: DIQMTQSPSSLSASVGDRVTITCRASRDIHTSLNWYQHTPGKAPELLIYAASTLEMGVPSRFSGSGSGTDFTFTISSLQPEDIATYYCQQYDELPLTFGGGTKVEMK
B9: SNV-32 (antibody, V domains shown)
VH: QVQLVQSGAEVKKPGSSVKVSCRASGGTFRSYSISWVRQAPGQGLEWMGDIIPIFSTTNYAQKFQGRVTITADEATSTAYMELSSLRSDDTAVYYCARPSNLLNWFDPWGQGTLVTVSS
VL: EIVMTQSPATLSVSPGERATLSCRASQSVNSNLVWYQQKPGQAPRLLIYGASTRATGIPARISGSGSGTEFTLTISSLQSEDFAVYYCQQYDNRPQTFGQGTKVEIK
B10: SNV-3 (antibody, V domains shown)
VH: QVQLQQSGPGLVKPSQTLSLTCAISGDSVSSNSAAWNWIRQSPSRGLEWLGRTYYRSKWYNDYAVSVKSRITINPDTSKNQFSLQMNSVTPEDTAVYYCARDRRKLEPPPFSYYYYGLDVWGQGTTVTVSS
VL: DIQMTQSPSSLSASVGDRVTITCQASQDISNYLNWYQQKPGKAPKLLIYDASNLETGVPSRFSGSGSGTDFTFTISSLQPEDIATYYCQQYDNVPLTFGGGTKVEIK
B11: SNV-21 (antibody, V domains shown)
VH: QVQLVESGGGVVQPGRALRLSCAASGFTFSSYGMHWVRQAPGKGLEWVAVVWNDGGNKYYADSVKGRFTISRDNSKNTLYLQMNSLRAEDTAVYFCARDGYYVSSGYHPLRYYYYYMDVWGKGTTVAVSS
VL: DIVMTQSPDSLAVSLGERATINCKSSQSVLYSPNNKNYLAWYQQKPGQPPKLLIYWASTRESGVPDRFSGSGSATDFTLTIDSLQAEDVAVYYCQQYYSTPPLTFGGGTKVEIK
B12: SNV-53 (antibody, V domains shown)
VH: EVQLVQSGAEVKTPGESLKISCKGSGYRFYTYWIAWVRQMPGKGLEWMGIIYPGDSDPRYSPSFQGQVTISADKSISTAYLQWSSLKASDTAMYYCVRVQGTMLDYWGQGTLVTVSS
VL: QSVLTQPPSVSGAPGQSVTISCSGSSSNIGAGYDVHWYQQLLGRAPKLLIHGNSNRPSGVPDRFSGSKSGTSGSLAITGLQSEDEADYYCQSYDISLSGWVFGGGTKLTVL
B13: SNV-30 (antibody, V domains shown)
VH: QLQLQESGSRLVKSSETLSLTCAVSGGAITSGRNTWSWIRQPPGKGLEWIGFIYYSGSTYSNPITYSSPSLKSRVTISLDTSKNQFSLKLNSVTAADTAVYYCARAKPSNLNFYYYGMDVWGQGTTVTVSS
VL: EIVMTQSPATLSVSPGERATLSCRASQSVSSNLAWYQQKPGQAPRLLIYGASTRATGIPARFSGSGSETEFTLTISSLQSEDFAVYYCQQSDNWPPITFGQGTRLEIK
B14: SNV-67 (antibody, V domains shown)
VH: QVQLVQSGAEVKKPGASVRVSCKASGYTFTAYFMNWVRQAPGQGLEWMGRINPISGDTNFAQNFQGRVTMTRDTSITTVYMELNRLTSDDTAVYYCARVRSGYSYIDFWGQGTLVTVAS
VL: SYDLTQPPSVSVSPGQTARITCSGDALSNQYAYWYQQRPGQAPVVVIYKYSERPSGIPERFSGSSSGTTVTLTISGVQAEDEADYYCQSADRLGTYWVFGGGTKLTVL
B15: SNV-57 (antibody, V domains shown)
VH: QVQLVESGGGVVQPGRSLRLSCAASGFTFSSYAMHWVRQAPGKGLEWVALISLDGFNTYYPDSVKGRFTISRDSSKNTLFLQLNSLRIEDTAVYYCVKDRGPTGSGSYGMDVWGQGTTVTVSS
VL: SYELTQPPSVSVSPGQTASITCSGDKLGNKFACWYQQKPGQSPVLVIHQDKKRPSGIPERFSGSNSGNTATLTISGTQAVDEADYYCQAWDSSNVVFGGGTKLTVL
B16: SNV-39 (antibody, V domains shown)
VH: QEQLEESGGGVVQPGRSLTLSCAASGFTFRSYDMHWVRQAPGKGLEWVALISYDGRNKHYGDSVKGRFTISRDNSKNTLYLHLSSLRAEDTSVYYCARGADNGLFTDSWGQGTLVIVSS
VL: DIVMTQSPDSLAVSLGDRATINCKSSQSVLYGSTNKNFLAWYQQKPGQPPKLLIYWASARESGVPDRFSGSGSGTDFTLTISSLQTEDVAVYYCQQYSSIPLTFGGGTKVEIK
B17: SNV-42 (antibody, V domains shown)
VH: EVQLVESGGGLVQPGGSLRLSCAASGFTFSTYEMNWVRQAPGKGLEWISYIRSSGSTVYYADSVKGRFTISRDNAKNLLYLQMNSLRAGDTAVYYCARIPGGYTGYFDYWGQGALVTVSS
VL: QSVLTQPPSVSGAPGQRVTISCTGSSSNIGAGYYVHWYQQLPGTVPKLLIYGNNNRPSGVPDRFSGSKSGTSASLAITGLQTEDEADYYCQSYDSSLSGWVFGGGTKLTVL

In this experiment the target is Sin Nombre virus (SNV) glycoproteins Gn and Gc displayed on the surface of Expi293F cells transfected with … (Sin Nombre virus). The experiment can be described thus: flow.
For the molecule B1, the EC50 turned out to be 11 ng/mL.
On to B2, for which a half-maximal response (EC50) required 6.5 ng/mL.
B3 came in with an EC50 of 3.4 ng/mL.
The figure for B4 is 5.2 ng/mL; for B5 it is 10 ng/mL.
Take B6: the EC50 came to 7.2 ng/mL.
The molecule B7 yielded an EC50 of 9.9 ng/mL.
On to B8, for which the EC50 came to 7.7 ng/mL.
B9 displayed an EC50 of 14 ng/mL.
The figure for B10 is 5.6 ng/mL.
Next, B11: 20 ng/mL; B12: 3.5 ng/mL.
As to B13, it took 5.5 ng/mL to reach a half-maximal effect (EC50).
As to B14, the EC50 came out at 15 ng/mL.
In turn, B15 displayed an EC50 of 6 ng/mL.
Next, B16: 14 ng/mL; B17: 5.9 ng/mL.
